Reference: the DeepSol protein solubility set

assay: soluble on expression in E. coli; label from the status in PepcDB or PDB records

Sequence | soluble on expression in E. coli
EVKLVESGGGLVKPGGSLKLSCAASGFTFSRYALSWVRQTADKRLEWVASIVSGGNTYYSGSVKGRFTISRDIARNILYLQMSSLRSEDTAMYYCARAYYGYVGLVHWGQGTLVTVSSAKTTPPSVYPLAPGSAAQTNSMVTLGCLVKGYFPEPVTVTWNSGSLSSGVHTFPAVLQSDLYTLSSSVTVPSSTWPSETVTCNVAHPASSTKVDKKIVPRDCG | soluble
MGSDKIHHHHHHMTNYIEEYCAQIRRMGSAGLIAKPILVDQDGTYTMTYVPHEHLNLGARLVLVSTTPGHAHVRLAAAVTEELLQARTPGRVIQRENKRRVELGGQLIRPNLIRMLDHFRAPELVGLPHAAALWNEGFEQFQPLALLPCATTRRGLAFNGTLEDLLAAPMLRAAFEAHFLGALRQMRPDAFYIALGRTAWSGLRHAASRRLLAKHQLLGMMPVPARAGNMVRYFLREISANDLSPNDPVRHRVDWLDAAHTELMANVQKVRAANMPPEGPNYLIA | not soluble
MPDLAGDLAAVLPPRPDTPGGEALPTDSGDVLRQGDILGRRVQSVRLGWDQLTSVQLWMCEQVLGIESAAEDEKPRRTRADKWALNYQAAKQFYEREGHLQVARKWVERIVIGGDGDGGDDKEEREHKLGARIGIQRSRAATPTPERMELLSAIGMRWSLEHHHHHH | not soluble
MRTVAALLFLFTCLESFESSSATPVCTNGFTLINNKCLKLLNTPVNHKAAEISCSSFGATLVTVKNDHDNQAIATIVGSSTPLVWLGLYCFSSNSSQCLWDDESGSARSYNNFSSGFPLVALGQCVYYSTQGALTGKWLSAECESQRMAFVCELPTTFADNCLHNYNGYCYTFSSSPQTFIGAQSTCAQTCGNLASVHSPNENRYITTFAPQDYYYIGAIWKTDYSLRWMDGSAWDYNNIDPIYPNRYNYCLHMSTITTSGSGFWYGDDCSLSRKYVCKREAGVPCTTVPPPVTVRPSSTNPSNCNAGLLMSPGVFTSPNYPQNYFNNENCTYQLSTLGSYRITLKFSNFRTESNYDFVSVYDGPTTSSPSLGRYSGNIGSFYVSSSENNMLVTFTSDAGVVFQGFTARFYSVVHRS | not soluble
MGWPFIGETISFFKPHRSDSIGTFLQQRVSRYGKVFKSNICGGKAVVSCDQELNMFILQNEGKLFTSDYPKAMHDILGKYSLLLATGEIHRKLKNVIISFINLTKSKPDFLHCAENLSISILKSWKNCREVEFHKEVKIFTLSVMVNQLLSIKPEDPARLYVLQDFLSYMKGFISLPIPLPGTGYTNAIKVRSNRNIHQNAIIEDMNNAIREEDFLDSIISNEDEEHAAIRAKKGDGELLNWEDYQKMEFTQCVISEALRCGNIVKTVHRKATHDIKFNEYVIPKGWKVFPIFTAVHLDPSLHENPFEFNPMRWTKTTAFGGGVRVCPGGELGKLQIAFFLHHLVLSYRWKIKSDEMPIAHPYVEFKRGMLLEIEPTKFLED | soluble
MGSDKIHHHHHHMIDVLVIGGGNAALCAALTAREAGASVTLLEAAPREWRGGNSQHTRNLRCMHDEPQDVLVDAYPEEEFWQDLLKVTGGITDEHLARLVIRHSSSCRDWMRRHGVNFQPPLSGTLHLSRTNAFFMGGGKALVNAYYRSARQLGVEIRYETPVDSLELDDNGNFIAAHTSSGRIEARSCVLACGGFESNREWLREAWGQNERGEWPGENFLIRGTRFNQGVLLKFLMQHGADIIGDPSQGHCVAIDARAPLYDGGICTRIDCVSLGIVVNRDAVRFYDEGEDFWPKRYAIWGRLTALQPGQIAYSIIDAKAIGRFMPPVFPGIQADTLPELARKIGLDEAQFVQTVETYNAACRIGTFDHTVLDDCHTENLQPAKTHWARPIDTGPFYAFAVRPGITFTYLGLKVDETAAVRFNGRPSENLFVAGEMMAGNVLGKGYTAGVGMSIGTAFGRIAGTQAAKAALQRHQTGALHEAA | not soluble
MGSDKIHHHHHHMLKGIPHDSPLYEVDEDRGIEYRNCDAIVGFFTIKGDVSDLLPEGLKAYSKPAQGGIWISHYSFSTVGEYHEYLTVIQVEDEQGDMGYYIPYIYVTNDSALAAGRELAGAPKKLANIGLVKELDVVMGYLERPTGKRLVTFVMKPNTRALGGMIDFVLPKPTYLYSVRHLPPIKGKGGVTQLVKWYADIDFHVDPKGERAIFMGPGNITYDSPSVIDPVHKVEIDTLMTALYFQFDMKLGFVDILREY | not soluble
MTDNDAVSAAFAHMRQEAKKRTGTVPNLNRPLPKASKSLADNDATPAVPKQRGMATGPDGRRRRRSYSVQRAGSILSDEIKKRGWRKEIAGGWVNSHWDDLVGAQIAAHTKVEMFKDKALFITCDSTAWATNLRMMQRIILRSISEQIGPDIIVELKIFGPKAPSWRHGPLHVKGRGPRDTYG | not soluble
KDFVSDVLPTIAECYHHLGQEDELVEFLRACIDKKAGVSAELMLAQLVAHHESVGAAQELLTKQLLKNPTMKGFYRLIDYHIAEAEDGRAKDSLSTLQAMVGEQLKVKPHYRCRKCGFSTHSLYWHCPSCKGWGTIKPIRGLDGE | not soluble
MSTTGRIHSFESCGTVDGPGIRFIVFLQGCLMRCKYCHNRDTWDTHDGKEVTVEEIIAEAKSYRHFMNASGGGITCSGGEAMLQPEFVRDFFRAAHAEGIHTCLDTNGYIRKHTEVIDEVLDATDLVMLDIKHMKDEIHQDFIGVSNRRTLDFARYLHKIGQKTWIRYVVVPGYTDDPEAAHMLGEFIKDMDNIEKVELLPYHKLGAHKWEALGLEYPLEGVNPPSKETMDEIQSILSQYHSNVKYLEHHHHHH | not soluble
MGSDKIHHHHHHMTLATMKLQILSDLHIDSYVRQSHPIGHIPKTDADIVLVAGDTANSDIGMPWLQEQAARLQVPLITIAGNHEYFNEDVLHFDKKLATWDNYDSESKQGVQFLQCQYIDIGEVRILGCTLWTDYQYQANEDTMVAALRFMRDYKQIYAGSELFSPEVSMQIHAKQRQWLKQALITAKALGKKTVVMSHHSISPLSVSEKYANLPSNAAFVSDLSQWMYEDWAPALWVHGHTHEAFDYHIHKTRVIVNPRAYPNEVSSTALAFAWDRVIDIG | not soluble
MAHHHHHHMNAVKLPEEWETLCSTNDAEVIHECINGVFRRLLANLLLDFNNPKLRQVKKDNKALHRLTDSLPAGFIEFLFSSIGFVEHDDVFIFEGSPESLKHGDAVLSYIEDSFGKERLQAAECELHRLRNLAIKKAENGLAPREMMTATAPLPRTQPLPQEEDAKRQAQHSGTEKDVAEEHAVKETVRKTLLNTGRVRNGFFEARDFSVRIMQHGRVYACTEKCPDHCVEVHWHLLTGRNILYSHLAHLSADGTRLLHLGPEHGYQYNSLPGSANFGKMIHFSEKLMDENGRLVHIKNDDKPVTACIYCGRAFAQLLL | not soluble
MEHEGLLVAEREIEVNNYDIDAMGIVSNIVYIRWFEDLRTIFINEYMTFSEMMKEHISPILMKTEIEYKVPITIHDKPVGRCWFVKAGRMKWVFKFEITSGDKVHCIGQQTGGFLDLERQRITKMPLEHHHHHH | not soluble
GYWGCKDLNSVFVYANQAYGELIGLKRAEDCIGRTDFEMPSPTAACAAEFQQQDRYVIETGHSVKVLDIHPYPDGHWHAHIFTKTPWRDSQGKIQGTIFFGQDLT | not soluble
QYCWQHRFPTGYFSICDRYMNGTCPEGNSCKFAHGNAELHEWEERRDALKMKLNKA | soluble
SLNDNFKKQPHHLIYEELLQQGITLGITTRGDGLSDYPKNAFNMARYIDDRPYNITQHQLQLAEEIAFDRKNWVFPIQTHENKVACITKDDIGTNIDTLTDALHGIDAMYTYDSNVLLTMCYADCVPVYFYSTKHHFIALAHAGWRGTYTEIVKEVLKHVNFDLKDLHVVIGPSTSSSYEINDDIKNKFETLPIDSANYIETRGRDRHGIDLKKANAALLIYYGVPKENIYTTAYATSEHLELFFSYRLEKGQTGRMLAFIGQQ | soluble
MGSSHHHHHHSSGLVPRGSTYKLTLIRHGESEWNKENRFTGWTDVSLSEQGVSEAIEAGRMLLEKGFKFDVVYTSVLKRAIMTTWTVLKELGNINCPIINHWRLNERHYGALQGLNKSETASKFGEDQVKIWRRSFDVPPPVLEKSDPRWPGNELIYKGICPSCLPTTECLKDTVERVKPYFEDVIAPSIMSGKSVLVSAHGNSLRALLYLLEGMTPEQILEVNIPTACPLVLELDDYLKVTKKYYLISEEELKAKMEAVANQGKAK | soluble
QVQLVQSGAEVKKPGSSVKVSCKASGYTFSSNVISWVRQAPGQGLEWMGGVIPIVDIANYAQRFKGRVTITADESTSTTYMELSSLRSEDTAVYYCASTLGLVLDAMDYWGQGTLVTVSSASTKGPSVFPLAPCSRSTSESTAALGCLVKDYFPEPVTVSWNSGALTSGVHTFPAVLQSSGLYSLSSVVTVPSSSLGTKTYTCNVDHKPSNTKVDKRVESKYGPP | soluble
MMINVHSYESMGTFDGPGLRLVVFLQGCNFRCLYCANPDTIAGKGGTPTPPEEIVRMAMSQRPFFGKRGGITFSGGEPTFQAKALVPLVRELKERGIHVCLDSNGGLWNEDVEELFKLTDLVLLDIKEFNPNRHQTLTGRSNEQTIRTAAWLEEQGKPFWLRYVLVPGYSDFEEDIRALGEALGKYKMIQRVEILPYHTLGVHKYEAMGQEYKMKGVKENTPEQLEKAAEVFKEYFTTVVVNLEHHHHHH | soluble
GPGSMKVGNRDYDPCVKVSLELESLLQHHFQQRQHSKRILKDRLRKAELEIAYLQQSVSAYSEELRVERLKFDTLQRTMEDSKRNHAAELMEQDKIIRDRMCNVDTQARLLVVKTEECERRAQCLQKQEEELLNREKELRFYQASFEAGIMPAQRQIEAERVRMLRAREKAEELLEEARISALATEERRKKLEALHNLEMQFFALEKEEATQRIQIMRQEIFGLVGLISFRRTHVSAAEGDAAKRIRLLEEELASKKEVFELREKEVYLRYQREEQRMRDERKRIISIKEAMRQDYRLVLEGIRLFGNEYSTEPDQLQVDALKDLEKLLFSALDDHQLEITKKL | soluble
MGSDKIHHHHHHMLGINRKLEQLESDGTIIRVGLVGAGQMGRGMVSQIESMKGMRVVVTADIVLENVKLAYERAGVPKDEVIETDEISKAADAIQAGKVVATGDAELVTALSEVDVVVDATGIPNIGAKIAWDAILNKKHIVMLNVEADVTVGPLLKQMADACGVVYTGSAGDEPGAVMELYDFADALGFEVVALGKGKNNPLNVEANPQTAAEEAKRKGASPKMLASFQDGTKTMVEMTAVANATGFLPDKPGMNGFVGTVEELPAIFRRKEEGGQVENERIVEYINGVAPGVFAIVKSDKEEVNHEMTYLSMGEGPNYVLYRPYHLTSLETPISIARAHLYHEATIAPWQGLQAETVAVAKKDLAAGEFLDSIGGFTVYGTILTVTDAKEKGALPIGLVDAHVQVKRPIKKGEIITYDDVEQKKESTIWRLRRIQDETLVGKRELEAKV | not soluble
MNELTGADFKSATADDNKKLFIETYGCQMNVADSEVIASVMQMAGYSVAETLEEADAVFMNTCSIRDNAEQKILNRLEFFHSLKKKKKALIVGVLGCMAERVKDDLITNHHVDLVVGPDAYLTLPELIAAVEAGEKAINVDLSTTETYRDVIPSRICGNHISGFVSIMRGCNNFCTYCIVPYTRGRERSRDVESILNEVADLVAKGYKEVTLLGQNVNSYRFEKPTGEVVTFPMLLRMVAEAAPGVRIRFTTSHPKDMSDETLEVIAQVPNVCKHIHLPVQSGSSRILKLMNRKYTREWYLDRVAAIKRIIPDCGLTTDIFSGFHSETEEDHQLSLSLMEECGYDAAFMFKYSERPGTYASKHLEDNVPEDVKVRRLNEIIALQNRLSAESNQRCIGKTYEVLVEGVSKRSRDQLFGRTEQNRVVVFDRGTHRIGDFVNVRVTEASSATLKGEEVLEHHHHHH | soluble
